Among the data in patent US9512459B2 (priority 2011, dated 2016) are Km and Vmax values, retold here.

One may read the Km as the concentration of substrate that gives half-maximal velocity.

Substrate in data set [1]: OC[C@H]1OC(O)[C@H](O)[C@@H](O)[C@@H]1O
The data set is described as follows: cells, lysate or membranes named. As to conditions: other: 60 ml culture, crude enzyme, glucose 1-40 mM, pH 6.5, DCIP/PMS, 20.0 °C.

Substrate in data set [2]: OC[C@H]1OC(O)[C@H](O)[C@@H](O)[C@@H]1O
The data set can be described thus: cells, lysate or membranes named. The data set is classed as biochemical, Aspergillus niger. To be noted: other: 3 ml culture, crude enzyme, glucose 1-40 mM, pH 6.5, DCIP/PMS.

B1: Aspergillus niger glucose dehydrogenase (FAD-GDH) Ang-n1, wild type, SEQ ID NO: 2 (20 N-terminal residues deleted, Ala21 substituted by Met) (Aspergillus niger … (protein)
chain: MDSPAHYDFVIVGGGTSGLVVANRLSELSDVTVAVIEAGESALNNFNVSNVMGYSTAFGTEVDWAYQTENQTYAGGLQQTIRAGKALGGTSTINGMSYTRAEDVQIDNWEVLGNDGWNWKNLFQYYKKSEGFQVPTKDQIAHGASYNASYHGLNGPLKVGWPNSMTNSSVFPVLEQTFEKLGVQYNPDSEGGKMVGFTVHPDTLDREMNVREDAARAYYWPYEARSNLKIISNTRANKVIWANTTQGEAVAVGIEVTNAYGTETIYADKEVILSAGALRSPAILELSGIGNPDVLNKHNIPVKVNITTVGENLQDQTNNALSWEGVDTLTGLATFSVLPSVNQLYGDNVTALASYVKSQLASYAKTVASASNGAVKEANLVEAFERQYDLIFNSQVPYTEVVFAPSGNSFAVEYWPLLPFSRGSVHIQSANASDYPAINPNYFMFDQDAEAQVTVAQYIRKALGTAPLNSLVGEEVSPGLDVLPASASSATWTKWVKENYRTNYHPVGTTSMLPREKGGVVSPELKVYGTKNVRVVDASVLPFQLCGHLTSTLYAVAERASDLIKESY
B1: in data set [1], the Km worked out at 3.6 mM.

B2: Aspergillus niger glucose dehydrogenase (FAD-GDH) Ang-n2 variant E195K/Q196E/G73A, SEQ ID NO: 2 (Aspergillus niger CBS 513.88; E195K/G73A/Q196E) (protein)
chain: YDFVIVGGGTSGLVVANRLSELSDVTVAVIEAGESALNNFNVSNVMAYSTAFGTEVDWAYQTENQTYAGGLQQTIRAGKALGGTSTINGMSYTRAEDVQIDNWEVLGNDGWNWKNLFQYYKKSEGFQVPTKDQIAHGASYNASYHGLNGPLKVGWPNSMTNSSVFPVLKETFEKLGVQYNPDSEGGKMVGFTVHPDTLDREMNVREDAARAYYWPYEARSNLKIISNTRANKVIWANTTQGEAVAVGIEVTNAYGTETIYADKEVILSAGALRSPAILELSGIGNPDVLNKHNIPVKVNITTVGENLQDQTNNALSWEGVDTLTGLATFSVLPSVNQLYGDNVTALASYVKSQLASYAKTVASASNGAVKEANLVEAFERQYDLIFNSQVPYTEVVFAPSGNSFAVEYWPLLPFSRGSVHIQSANASDYPAINPNYFMFDQDAEAQVTVAQYIRKALGTAPLNSLVGEEVSPGLDVLPASASSATWTKWVKENYRTNYHPVGTTSMLPREKGGVVSPELKVYGTKNVRVVDASVLPFQLCGHLTSTLYAVAERASDLIKESY
notes: E. coli BL21(DE3), crude extract, small-scale culture
Consider B2, for which, in data set [2], the Km is 5.5 mM and the Vmax came to 5.0 U/mg protein.
